In the supplement of paper PMC7877785:
± gives the uncertainty stated by the source.

Assay: self-splicing fitness, log relative to wild type (ln ratio); higher = more splicing; Tetrahymena group I intron in knt gene, E. coli kanamycin selection, DiMSum; sequences stand for … in CUCUCU…GGAGGGAAAAGUUAUCAGGCAUGCACCUGGUAGCUAGUCUUUAAACCAAUAGAUUGCAUCGGUUUAAAAGGCAAGACCGUCAAAUUGCGGGAAAGGGGUCAACAGCCGUUCAGUACCAAGUCUCAGGGGAAACUUUGAGAUGGCCUUGCAAAGGGUAUGGUAAUAAGCUGACGGACAUGGUCCUAACCACGCAGCCAAGUCCUAAGUCAACAGAUCUUCUGUUGAUAUGGAUGCAGUUCACAGACUAAAUGUCGGUCGGGGAAGAUGUAUUCUUCUCAUAAGAUAUAGUCGGACCUCUCCUUAAUGGGAGCUAGCGGAUGAAGUGAUGCAACACUGGAGCCGCUGGGAACUAAUUUGUAUGCGAAAGUAUAUUGAUUAGUUUUGGAGUACUCGUGGUCG
How it was run: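 Library with all eight P1ex-region intron nucleotides randomised, intron inside the knt kanamycin-resistance gene on pET-22b(+), in E. coli BL21(DE3). Cells grew overnight at 37°C or 30°C on LB agar with or without 25 μg/mL kanamycin (plus 100 μg/mL carbenicillin, 50 μM IPTG, 0.2% rhamnose), in six replicate transformations. Pooled colonies were amplicon-sequenced on Illumina HiSeq 2500. DiMSum fitness is the error-weighted combination of wild-type-normalised replicate fold changes, kanamycin versus none.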

Sequence	self-splicing fitness (ln) (30 °C)	self-splicing fitness (ln) (37 °C)
UCACAGCAAUAUUACGCCGC	-3.57 ± 0.22	-2.69 ± 0.19
AUGUAGCAAUAUUACGGAUA	-1.43 ± 0.16	-1.83 ± 0.28
GACGAGCAAUAUUACGGCUU	-1.43 ± 0.11	-0.332 ± 0.14
CCACAGCAAUAUUACGUCAG	-0.817 ± 0.057	-0.131 ± 0.071
GUCUAGCAAUAUUACGCCGA	-1.65 ± 0.19	-0.506 ± 0.15
UGUGAGCAAUAUUACGAAUU	-4.64 ± 0.46	-1.8 ± 0.45
CUGUAGCAAUAUUACGCUAC	-3.21 ± 0.35	-1.39 ± 0.32
UUAGAGCAAUAUUACGAGGU	–	-2.29 ± 0.35
CCGAAGCAAUAUUACGUGCU	-4 ± 0.24	-2.88 ± 0.28
GGCAAGCAAUAUUACGGUGC	-2.87 ± 0.16	-1.77 ± 0.17
UGCUAGCAAUAUUACGGUGU	-3.16 ± 0.14	-2.38 ± 0.19
GAAAAGCAAUAUUACGGAGC	-2.46 ± 0.16	-0.743 ± 0.12
CUGAAGCAAUAUUACGGGAC	-0.993 ± 0.072	-0.612 ± 0.1
GCCAAGCAAUAUUACGAAAA	-2.45 ± 0.27	-1.54 ± 0.2
GUACAGCAAUAUUACGCUGG	-2.55 ± 0.13	-0.491 ± 0.12
AUACAGCAAUAUUACGCGGA	-2.02 ± 0.17	-1.74 ± 0.14
CGAGAGCAAUAUUACGCCUU	-3.73 ± 0.43	-1.07 ± 0.29
GGGUAGCAAUAUUACGUGAA	-1.36 ± 0.13	-0.147 ± 0.16
ACCGAGCAAUAUUACGUCUA	-3.65 ± 0.28	-2.86 ± 0.17
CUGCAGCAAUAUUACGUGUU	-4.86 ± 0.31	-2.28 ± 0.19
CGGUAGCAAUAUUACGUUGA	-3.27 ± 0.35	-1.76 ± 0.17
UUCCAGCAAUAUUACGCUAA	-0.0987 ± 0.083	-0.376 ± 0.084
UUCAAGCAAUAUUACGUUAU	-4.39 ± 0.21	-2.3 ± 0.15
GGAUAGCAAUAUUACGUACG	-0.84 ± 0.21	-0.97 ± 0.25

Sequence	self-splicing fitness (ln) (30 °C)	self-splicing fitness (ln) (37 °C)
GGCCAGCAAUAUUACGGCAA	-0.216 ± 0.082	-0.645 ± 0.087
UCAUAGCAAUAUUACGGCGA	-0.178 ± 0.07	-0.102 ± 0.083
UAAUAGCAAUAUUACGCUAA	-2.11 ± 0.27	-1.39 ± 0.19
AGAAAGCAAUAUUACGUGAU	-2.17 ± 0.069	-1.25 ± 0.091
CAUCAGCAAUAUUACGCAGA	-2.69 ± 0.21	-2.86 ± 0.31
GCACAGCAAUAUUACGUGAC	-1.13 ± 0.089	-1.97 ± 0.1
AAAAAGCAAUAUUACGCUGU	-2.69 ± 0.13	-1.69 ± 0.11
UUGGAGCAAUAUUACGGCGU	–	-2.29 ± 0.35
AAUGAGCAAUAUUACGAGCA	-3.45 ± 0.32	-2.35 ± 0.29
GUCGAGCAAUAUUACGACUC	-2.05 ± 0.32	-1.15 ± 0.36
CGCUAGCAAUAUUACGCGUC	-3.34 ± 0.32	-3.09 ± 0.39
AAAUAGCAAUAUUACGUUGU	-4.44 ± 0.29	-1.02 ± 0.12
UCCUAGCAAUAUUACGCUAA	-2.98 ± 0.31	-3.02 ± 0.29
UAUCAGCAAUAUUACGUGGC	-4.28 ± 0.36	-2.41 ± 0.27
GCACAGCAAUAUUACGACUU	-0.119 ± 0.076	0.33 ± 0.088
CAUAAGCAAUAUUACGGUAC	-2.89 ± 0.19	-2.14 ± 0.29
CCAAAGCAAUAUUACGCACA	-3.55 ± 0.34	-1.66 ± 0.32
UAGUAGCAAUAUUACGCGCC	-2.32 ± 0.28	-0.984 ± 0.23
GUAUAGCAAUAUUACGUCUA	-0.881 ± 0.17	-1.01 ± 0.18
CUUCAGCAAUAUUACGGGUG	-0.356 ± 0.038	0.33 ± 0.058
CACCAGCAAUAUUACGAAAA	-3.1 ± 0.2	-2.33 ± 0.2
AGGUAGCAAUAUUACGAGAU	-3.178 ± 0.023	-1.91 ± 0.036
GUAUAGCAAUAUUACGAUCU	-1.16 ± 0.19	0.209 ± 0.21
UGGAAGCAAUAUUACGUCCG	-2.72 ± 0.21	-2.41 ± 0.22

Sequence	self-splicing fitness (ln) (30 °C)	self-splicing fitness (ln) (37 °C)
UAAUAGCAAUAUUACGGGCA	-0.899 ± 0.2	-0.61 ± 0.19
AGGGAGCAAUAUUACGAUGC	–	-2.65 ± 0.41
AAGUAGCAAUAUUACGGAUC	-1.17 ± 0.083	-0.819 ± 0.12
UCUCAGCAAUAUUACGUGUA	-1.47 ± 0.089	-0.902 ± 0.08
GCGAAGCAAUAUUACGCCAA	–	-1.82 ± 0.39
UUGAAGCAAUAUUACGCUGG	-0.756 ± 0.094	-0.221 ± 0.15
GAACAGCAAUAUUACGUGCA	-1.09 ± 0.065	0.0769 ± 0.089
CCCUAGCAAUAUUACGGCCG	-2.29 ± 0.36	-1.62 ± 0.34
GAUCAGCAAUAUUACGCAAC	-1.5 ± 0.13	-0.455 ± 0.17
GCGUAGCAAUAUUACGAGCU	-1.5 ± 0.12	-1.66 ± 0.23
UUGGAGCAAUAUUACGUUUC	-3.77 ± 0.43	-3.44 ± 0.42
UGGGAGCAAUAUUACGUCAG	-2.87 ± 0.23	-1.5 ± 0.3
CCGCAGCAAUAUUACGCAAA	-3.29 ± 0.21	-2.15 ± 0.22
AGUUAGCAAUAUUACGCUCG	-0.0767 ± 0.16	-0.636 ± 0.19
GAAAAGCAAUAUUACGCAGA	-2.53 ± 0.18	-2.2 ± 0.13
UAAGAGCAAUAUUACGGUUU	-3.48 ± 0.24	-1.85 ± 0.23
AAACAGCAAUAUUACGAUGA	-1.34 ± 0.067	-0.0116 ± 0.067
GUUGAGCAAUAUUACGGUUG	-3.56 ± 0.35	-1.38 ± 0.38
AUCUAGCAAUAUUACGUGGG	-2.22 ± 0.18	-2.42 ± 0.27
CGUAAGCAAUAUUACGAACA	-1.23 ± 0.19	-0.207 ± 0.22
GCGGAGCAAUAUUACGCUUU	-3.1 ± 0.31	-3.21 ± 0.28
GACUAGCAAUAUUACGUUUG	-2.63 ± 0.13	-2.46 ± 0.2
GAUGAGCAAUAUUACGCUUG	-3.15 ± 0.39	-1.07 ± 0.3
CGACAGCAAUAUUACGAGCU	-2.86 ± 0.15	-2.17 ± 0.17

Sequence	self-splicing fitness (ln) (30 °C)	self-splicing fitness (ln) (37 °C)
GGAAAGCAAUAUUACGACUU	-0.349 ± 0.1	-0.0565 ± 0.11
UCUGAGCAAUAUUACGGCCU	-3.3 ± 0.29	-1.6 ± 0.3
CCGGAGCAAUAUUACGUUAU	-2.97 ± 0.31	-2.01 ± 0.23
CUCAAGCAAUAUUACGAAAG	-2.12 ± 0.11	-0.747 ± 0.13
AUCAAGCAAUAUUACGGCUA	-0.209 ± 0.097	0.184 ± 0.11
ACCAAGCAAUAUUACGUGCG	-1.03 ± 0.052	-0.972 ± 0.069
CCCCAGCAAUAUUACGGAAA	-4.13 ± 0.34	-1.64 ± 0.16
GUCUAGCAAUAUUACGACGG	-3.01 ± 0.29	-2.45 ± 0.27
UACGAGCAAUAUUACGCAGG	-2.88 ± 0.21	-2.64 ± 0.22
UUCGAGCAAUAUUACGUAUC	-3 ± 0.34	-0.649 ± 0.23
AGCCAGCAAUAUUACGGCGC	-1.51 ± 0.13	-0.844 ± 0.16
AGCUAGCAAUAUUACGCAGU	-2.97 ± 0.19	-2.02 ± 0.26
GCGCAGCAAUAUUACGCAUU	-1.4 ± 0.077	-0.154 ± 0.1
CACAAGCAAUAUUACGGCAA	-2.21 ± 0.1	-1.55 ± 0.089
UUCGAGCAAUAUUACGUCGU	-3.29 ± 0.33	-1.24 ± 0.21
ACGUAGCAAUAUUACGACGC	-0.35 ± 0.25	-0.563 ± 0.3
CACUAGCAAUAUUACGCUGC	-3.71 ± 0.32	-2.76 ± 0.35
AUCAAGCAAUAUUACGCCCG	-0.965 ± 0.17	-0.202 ± 0.2
AAGCAGCAAUAUUACGGGUG	-3.43 ± 0.13	-1.85 ± 0.1
CCACAGCAAUAUUACGACCU	-3.94 ± 0.3	-2.82 ± 0.18
UGUUAGCAAUAUUACGCUGG	-3.77 ± 0.24	0.0911 ± 0.15
AUAUAGCAAUAUUACGUCCU	-0.548 ± 0.11	0.119 ± 0.12
ACAUAGCAAUAUUACGCGAA	-3.3 ± 0.13	-1.03 ± 0.098
UCUUAGCAAUAUUACGAUUA	-2.37 ± 0.24	-1.34 ± 0.2
